From patent publication US20260209323A1 (WHITEHEAD INSTITUTE FOR BIOMEDICAL RE SEARCH, published 2026)

T1: human gasdermin D (GSDMD), full length (human, UniProt P57764 1-484, chemically biotinylated (sites not given) in the SPR experiments)
T1 construct: Used in SPR (biotinylated), nanoDSF and the liposome assay; the same entry is used for endogenous GSDMD of THP-1 cells; also called wild type, human GSDMD; GSDMD 1-484
T1 sequence: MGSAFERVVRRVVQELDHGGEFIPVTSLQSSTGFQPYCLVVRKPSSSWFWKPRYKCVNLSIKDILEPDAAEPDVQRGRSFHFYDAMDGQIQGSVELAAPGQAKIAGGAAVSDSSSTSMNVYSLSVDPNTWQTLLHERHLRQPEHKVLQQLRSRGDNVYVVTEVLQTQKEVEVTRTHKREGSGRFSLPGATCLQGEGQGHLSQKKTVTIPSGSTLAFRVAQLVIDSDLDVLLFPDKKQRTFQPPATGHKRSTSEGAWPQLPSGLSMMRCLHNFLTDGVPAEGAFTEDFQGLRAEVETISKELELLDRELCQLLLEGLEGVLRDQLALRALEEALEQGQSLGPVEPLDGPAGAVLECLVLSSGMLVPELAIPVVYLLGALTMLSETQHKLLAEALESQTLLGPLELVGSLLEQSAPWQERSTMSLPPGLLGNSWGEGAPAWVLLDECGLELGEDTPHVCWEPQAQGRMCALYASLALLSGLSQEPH

T2: GSDMD^CT (human, UniProt P57764)
T2 construct: domain fused to Renilla luciferase; LUMIER bait; also called GSDMD^CT-Renilla luciferase fusion
T2 sequence (single chain, looked up): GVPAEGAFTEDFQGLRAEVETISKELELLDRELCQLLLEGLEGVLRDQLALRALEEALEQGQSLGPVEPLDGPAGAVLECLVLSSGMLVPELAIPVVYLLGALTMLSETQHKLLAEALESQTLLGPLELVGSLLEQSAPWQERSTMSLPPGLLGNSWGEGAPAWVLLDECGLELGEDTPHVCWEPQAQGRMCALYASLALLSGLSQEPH

T3: murine GsdmD (murine, UniProt Q9D8T2 1-487)
T3 construct: not shown: Renilla luciferase
T3 sequence (looked up): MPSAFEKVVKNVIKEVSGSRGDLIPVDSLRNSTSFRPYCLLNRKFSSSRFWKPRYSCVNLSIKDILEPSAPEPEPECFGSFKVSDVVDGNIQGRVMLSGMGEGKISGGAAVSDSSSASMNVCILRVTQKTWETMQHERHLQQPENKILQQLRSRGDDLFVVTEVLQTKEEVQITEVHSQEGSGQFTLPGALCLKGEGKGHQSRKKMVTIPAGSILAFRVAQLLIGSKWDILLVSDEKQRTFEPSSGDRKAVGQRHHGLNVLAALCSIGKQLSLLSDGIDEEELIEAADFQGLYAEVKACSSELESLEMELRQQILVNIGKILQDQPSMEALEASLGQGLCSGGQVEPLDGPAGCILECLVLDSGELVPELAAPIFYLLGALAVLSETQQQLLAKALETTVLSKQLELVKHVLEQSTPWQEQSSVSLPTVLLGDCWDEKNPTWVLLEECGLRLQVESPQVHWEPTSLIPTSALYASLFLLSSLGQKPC


What was measured:
[1] = molecular target: T1, human gasdermin D (GSDMD), full length; assay: SPR (Biacore 8K), biotinylated GSDMD immobilized, nanobody as analyte, multi-cycle kinetics, 1:1 model
Protocol: (§1) Chemically biotinylated GSDMD was immobilized on a sensor chip and nanobodies were injected as analytes at the indicated concentrations for 120 s, followed by dissociation for 300 s. Dissociation constants (KDs) were determined from the association and dissociation fits by applying a 1:1 binding model. d, Epitope binning assay.
(§2) Surface plasmon resonance experiments were performed using a Biacore 8K instrument (GE Healthcare). The flow system was cleaned using the maintenance “Desorb” function (Desorb Kit, GE Healthcare). The system was flushed with running buffer (20 mM HEPES (pH 8.0), 200 mM NaCl, 5 mM DTT, 0.05% Tween20) and all steps were performed at 25° C. chip temperature. Chemically biotinylated GSDMD at a concentration of 100 nM was immobilized for 180 s on the flow cell 2 of a Series S Sensor Chip CAP using a biotin capture kit and a flow rate of 30 μl/min. The system was washed for 600 s with running buffer with a flow rate of 30 μl/min. Binding affinities were determined using multi-cycle kinetics. […] The association step was carried out for 120 s and the dissociation step for 300 s.

GSDMD^CT = molecular target: T2, GSDMD^CT; assay: LUMIER co-IP in HEK293T, HA-tagged VHH with Renilla luciferase fusion
[2] = molecular target: T1, human gasdermin D (GSDMD), full length; assay: nanoDSF titration, 5 µM GSDMD + 5 µM VHH; SD 0.8; GSDMD 5 µM alone 50.2 °C, VHH-5 50 µM alone 58.5 °C
Protocol: (§3) The melting temperatures of GSDMD and the nanobodies alone were determined at concentrations of 5 and 50 μM, respectively.

[3] = molecular target: T1, human gasdermin D (GSDMD), full length; assay: nanoDSF thermal shift, equimolar GSDMD and nanobody
Protocol: (§4) One representative out of three experiments is shown. d, Unfolding temperatures of GSDMD, the nanobodies and GSDMD-nanobody complexes were determined using nanoDSF. The unfolding temperatures of GSDMD at 5 μM and the GSDMD nanobody complexes after addition of 5 μM nanobody are shown. N=x, data represented with SD. e, Unfolding temperatures of GSDMD and GSDMD-nanobody complexes.
(§5) The thermal stability of the nanobodies and their impact on the thermostability of GSDMD was further analyzed using a thermal shift assay by nano-differential scanning fluorimetry (FIG. 11D, E and FIG. 18).

[4] = molecular target: T1, human gasdermin D (GSDMD), full length; assay: nanoDSF thermal shift, 5 µM GSDMD + 5 µM VHH; SD 0.8 °C; GSDMD alone 50.2 °C (SD 0.3)
Protocol: as §4, §5

[5] = molecular target: T1, human gasdermin D (GSDMD), full length; assay: nanoDSF titration, 5 µM GSDMD + 5 µM VHH; SD 1.0; GSDMD 5 µM alone 50.2 °C, VHH-2 50 µM alone 58.0 °C
Protocol: as §3

[6] = molecular target: T1, human gasdermin D (GSDMD), full length; assay: nanoDSF thermal shift, 5 µM GSDMD + 5 µM VHH; SD 1.0 °C; GSDMD alone 50.2 °C (SD 0.3)
Protocol: as §4, §5

murine GsdmD = molecular target: T3, murine GsdmD; assay: LUMIER co-IP in HEK293T, HA-tagged VHH with Renilla luciferase fusion
[7] = molecular target: T1, human gasdermin D (GSDMD), full length; assay: nanoDSF titration, 5 µM GSDMD + 5 µM VHH; SD 1.3; GSDMD 5 µM alone 50.2 °C, VHH-3 50 µM alone 59.1 °C
Protocol: as §3

[8] = molecular target: T1, human gasdermin D (GSDMD), full length; assay: nanoDSF thermal shift, 5 µM GSDMD + 5 µM VHH; SD 1.3 °C; GSDMD alone 50.2 °C (SD 0.3)
Protocol: as §4, §5

[9] = molecular target: T1, human gasdermin D (GSDMD), full length; assay: SPR (Biacore 8K), chemically biotinylated GSDMD immobilised, VHH as analyte, multi-cycle kinetics, 1:1 fit
Protocol: as §1, §2

[10] = molecular target: T1, human gasdermin D (GSDMD), full length; assay: nanoDSF titration, 5 µM GSDMD + 5 µM VHH; SD 0.5; GSDMD 5 µM alone 50.2 °C, VHH-6 50 µM alone 42.6 and 53.5 °C
Protocol: as §3

[11] = molecular target: T1, human gasdermin D (GSDMD), full length; assay: nanoDSF thermal shift, 5 µM GSDMD + 5 µM VHH; SD 0.5 °C; GSDMD alone 50.2 °C (SD 0.3)
Protocol: as §4, §5

[12] = molecular target: T1, human gasdermin D (GSDMD), full length; assay: nanoDSF titration, 5 µM GSDMD + 5 µM VHH; SD 1.0; GSDMD 5 µM alone 50.2 °C, VHH-1 50 µM alone 67.6 °C
Protocol: as §3

Row | Binder | Kd [1] | binding result (GSDMD^CT) | increase of the thermal stability of GSDMD [3] | Tm of GSDMD with the VHH [6] | binding result (murine GsdmD) | other results
1 | VHHGSDMD-5 (VHH, Alpaca single-domain antibody; also called VHH AK-G04; VHH-5; not shown: C-terminal HA-His tag (recombinant protein: SPR, nanoDSF, liposome assay, ELISA) or HA tag (LUMIER)) VHH: QVQLVETGGGLVQPGGSLRLSCAASGFVFSINPMNWYRQAPGKERELVAYISMRGSTTNYADSVKGRFIISRDNAKNTLYLQMNSLKPEDTAVYYCNAPSRSVWGQGTQVTVSS | 4.14 nM | no binding | – | – | – | Tm of GSDMD with the VHH [2]: 48.8 °C; decrease of the melting temperature of GSDMD [3]: ≤ 2.5 °C; Tm of GSDMD with the VHH [4]: 48.8 °C
2 | VHHGSDMD-2 (VHH, Alpaca single-domain antibody; The crystal model holds VHH-2 residues 1-118; One entry is used for all tag variants; also called VHH AK-C03; VHH-2; not shown: C-terminal tag that differs by assay: LPETG-His (recombinant protein: SPR, nanoDSF, liposome assay, crystal), HA-His6 (E)) VHH: QVQLVESGGGLVQPGGSLRLSCVDSRSWINVYGANWYRQAPGKERELVAALTSGGTTNYADSVKGRFTISRDNAKNTVYLQMRDLKPEDTAVYYCNLERYTGSSVYPWGQGTQVTVSS | 8.24 nM | no binding | ≤ 9.4 °C | 56 °C | no binding | Tm of GSDMD with the VHH [5]: 56 °C
3 | VHHGSDMD-3 (VHH, Alpaca single-domain antibody; One entry is used for all tag variants; also called VHH AK-H12; VHH-3; not shown: C-terminal tag that differs by assay: LPETG-His (recombinant protein: SPR, nanoDSF, liposome assay), HA-His6 (ELISA), HA) VHH: QVQLVETGGGLVQPGGSLRLSCAASGFTLDIYNMGWFRQAPGKEREGVSCISSRYGTSTYYADSVKGRFTISRDNAKNTVYLQMNNLKPEDTAVYYCATVSWRFTTNQDVCLTPSVSGYWGQGTQVTVSS | 2.19 nM | no binding | ≤ 9.4 °C | – | – | Tm of GSDMD with the VHH [7]: 54.1 °C; Tm of GSDMD with the VHH [8]: 54.1 °C
4 | VHHGSDMD-6 (VHH, Alpaca single-domain antibody; The crystal model holds VHH-6 residues 1-123; also called VHH AK-G08; VHH-6; not shown: C-terminal HA-His tag (recombinant protein: SPR, nanoDSF, liposome assay, crystal, ELISA)) VHH: QVQLVETGGGLVQPGGSLRLSCTASGFIFSANQMNWVRQAPGKGLEWLSGISTRGDTTSYADSVKGRFTISRDNAKNTLYLQMNSLQPDDTAVYFCARVCIRGPEPKLRCDDWGQGTQVTVSS | – | – | 4.2 °C | – | – | Kd [9]: 280 nM; Tm of GSDMD with the VHH [10]: 54.4 °C; Tm of GSDMD with the VHH [11]: 54.4 °C
5 | VHH-4 (VHH, Alpaca single-domain antibody; also called VHH AK-C10; GSDMD4; not shown: C-terminal HA-His tag (recombinant protein: SPR, nanoDSF, liposome assay, ELISA)) VHH: QVQLVESGGGLVQPGGSLRLSCAASGFTLDRHAIAWFRQAPGLEREGVVCTSSSGAITNTADSVKGRFTISRDDAKNTVYLQMNSLKPEDTAIYYCAVRELWTVQPICEPRPRAYAYWGQGTQVTVSS | – | no binding | – | – | – | –
6 | VHHGSDMD-1 (VHH, Alpaca single-domain antibody; One entry is used for all tag variants; also called VHH AK-A04; VHH-1; not shown: C-terminal tag that differs by assay: LPETG-His (recombinant protein: SPR, nanoDSF, liposome assay), HA-His6 (ELISA), HA) VHH: QVQLVESGGALVQPGGSLRLSCSASGFTFSKYLMSWYRQAPGKERELVATITTAGGNTNYADSVKGRFTISRDNAKNTVYLQMNSLKPEDTAVYYCKASGGTIRTVNETYWGQGTQVTVSS | 0.55 nM | no binding | ≤ 9.4 °C | 59.6 °C | no binding | Tm of GSDMD with the VHH [12]: 59.6 °C
